Data taken from patent publication US20210063414A1, “METHODS FOR PREVENTING AND/OR TREATING BONE LOSS CONDITIONS BY MODULATING IRISIN” (Dana-Farber Cancer Institute, Inc., priority 2018, published 2021).

Columns and labels:
[1] = target: T1, MLO-Y4 cell surface proteins (Mus musculus, UniProt B1AVY7); assay: Crosslinking/co-immunoprecipitation/mass spectrometry (TMT quantitative proteomics) to identify irisin receptors; type: binding; details: co-precipitated protein Kif16b (KI16B_MOUSE)
T1 construct: endogenous in cells; host or cells: MLO-Y4
T1 sequence (B1AVY7 1-1312): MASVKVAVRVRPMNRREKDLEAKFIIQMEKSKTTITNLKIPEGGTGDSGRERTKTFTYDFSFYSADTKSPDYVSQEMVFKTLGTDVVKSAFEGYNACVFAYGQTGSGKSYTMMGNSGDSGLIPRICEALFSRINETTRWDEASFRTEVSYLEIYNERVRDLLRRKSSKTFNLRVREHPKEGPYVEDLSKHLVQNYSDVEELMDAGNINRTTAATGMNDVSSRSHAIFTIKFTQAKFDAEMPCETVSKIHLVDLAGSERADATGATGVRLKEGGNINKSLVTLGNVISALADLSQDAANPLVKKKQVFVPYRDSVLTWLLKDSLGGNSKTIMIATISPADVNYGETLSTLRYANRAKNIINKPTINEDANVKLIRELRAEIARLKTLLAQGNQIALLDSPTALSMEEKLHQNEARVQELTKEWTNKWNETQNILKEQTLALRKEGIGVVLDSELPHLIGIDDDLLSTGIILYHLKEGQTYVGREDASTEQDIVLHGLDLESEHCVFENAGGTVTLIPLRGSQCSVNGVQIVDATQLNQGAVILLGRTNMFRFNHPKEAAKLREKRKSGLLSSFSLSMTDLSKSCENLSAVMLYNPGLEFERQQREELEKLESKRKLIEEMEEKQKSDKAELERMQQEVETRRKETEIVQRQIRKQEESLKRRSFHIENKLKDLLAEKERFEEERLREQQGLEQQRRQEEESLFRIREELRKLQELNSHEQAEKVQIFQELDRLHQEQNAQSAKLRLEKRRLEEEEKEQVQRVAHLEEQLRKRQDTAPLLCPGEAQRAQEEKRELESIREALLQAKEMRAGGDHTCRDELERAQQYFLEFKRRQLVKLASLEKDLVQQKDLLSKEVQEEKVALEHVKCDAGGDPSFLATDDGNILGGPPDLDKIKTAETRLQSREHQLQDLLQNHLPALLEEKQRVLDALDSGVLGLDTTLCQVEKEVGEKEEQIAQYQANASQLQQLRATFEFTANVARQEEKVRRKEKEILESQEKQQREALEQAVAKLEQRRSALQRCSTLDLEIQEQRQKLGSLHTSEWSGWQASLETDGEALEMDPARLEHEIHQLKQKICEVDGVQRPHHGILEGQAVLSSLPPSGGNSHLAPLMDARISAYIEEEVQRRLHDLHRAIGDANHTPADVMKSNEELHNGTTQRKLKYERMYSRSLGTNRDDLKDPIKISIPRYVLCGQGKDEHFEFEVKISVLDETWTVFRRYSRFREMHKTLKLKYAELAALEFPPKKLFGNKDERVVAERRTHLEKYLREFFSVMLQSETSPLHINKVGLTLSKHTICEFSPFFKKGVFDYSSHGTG
Procedure, shortened: (§1)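 Relative protein abundance came from 6-plex TMT MS3 quantitation on an Orbitrap Fusion Lumos, after in-gel trypsin digestion of Coomassie-stained SDS-PAGE lanes. Input was a Ni-NTA pulldown (250 mM imidazole elution) of lysates from murine MLO-Y4 cells. These cells were treated on ice with His-tagged irisin or adipsin (10 nM, 20 min) in serum-free medium, then crosslinked with 1.5 mM DTSSP for 30 min.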

[2] = target: T2, MLO-Y4 cell surface proteins (Mus musculus, UniProt Q9WTP6); assay: as above; type: binding; details: co-precipitated protein Ak2 (KAD2_MOUSE)
T2 construct: endogenous in cells; host or cells: MLO-Y4
Procedure, shortened: as §1

adipsin
TMT signal-to-noise ratio [1]: 1117.61
TMT signal-to-noise ratio [2]: 113.461
